Reference: US20250282890A1

How the values were obtained:
[1] = biological target: recombinant human PSMA (prostate-specific membrane antigen), biotin-tagged (human) (UniProt Q04609); experiment: native ELISA, streptavidin-captured biotin-tagged PSMA, IgG1 titrated
[2] = biological target: human PSMA displayed on the surface of LNCaP cells (human) (UniProt Q04609); experiment: flow cytometry on LNCaP cells, IgG1 titrated
[3] = biological target: recombinant human PSMA (prostate-specific membrane antigen), biotin-tagged (human) (UniProt Q04609); experiment: ELISA on plates coated with recombinant PSMA, two-fold dilution series, goat anti-human-HRP and TMB
[4] = biological target: recombinant human PSMA (prostate-specific membrane antigen), biotin-tagged (human) (UniProt Q04609); experiment: ELISA on plates coated with recombinant PSMA (biotin-tagged, captured on streptavidin), two-fold dilution series, goat anti-human-HRP and TMB
[5] = biological target: recombinant human PSMA (prostate-specific membrane antigen), biotin-tagged (human) (UniProt Q04609); experiment: native ELISA, streptavidin-captured biotin-tagged PSMA, Fab titrated
[6] = biological target: human PSMA displayed on the surface of LNCaP cells (human) (UniProt Q04609); experiment: flow cytometry titration on cells (three-fold dilution series, anti-Strep antibody and goat anti-mouse Alexa Fluor 647); the sheet does not name the cell line, the text gives the curves as binding to cell-surface PSMA (LNCaP)
[7] = biological target: human PSMA displayed on the surface of LNCaP cells (human) (UniProt Q04609); experiment: flow cytometry on LNCaP cells, Fab titrated

Chain of human PSMA displayed on the surface of LNCaP cells (human) (Q04609 whole entry): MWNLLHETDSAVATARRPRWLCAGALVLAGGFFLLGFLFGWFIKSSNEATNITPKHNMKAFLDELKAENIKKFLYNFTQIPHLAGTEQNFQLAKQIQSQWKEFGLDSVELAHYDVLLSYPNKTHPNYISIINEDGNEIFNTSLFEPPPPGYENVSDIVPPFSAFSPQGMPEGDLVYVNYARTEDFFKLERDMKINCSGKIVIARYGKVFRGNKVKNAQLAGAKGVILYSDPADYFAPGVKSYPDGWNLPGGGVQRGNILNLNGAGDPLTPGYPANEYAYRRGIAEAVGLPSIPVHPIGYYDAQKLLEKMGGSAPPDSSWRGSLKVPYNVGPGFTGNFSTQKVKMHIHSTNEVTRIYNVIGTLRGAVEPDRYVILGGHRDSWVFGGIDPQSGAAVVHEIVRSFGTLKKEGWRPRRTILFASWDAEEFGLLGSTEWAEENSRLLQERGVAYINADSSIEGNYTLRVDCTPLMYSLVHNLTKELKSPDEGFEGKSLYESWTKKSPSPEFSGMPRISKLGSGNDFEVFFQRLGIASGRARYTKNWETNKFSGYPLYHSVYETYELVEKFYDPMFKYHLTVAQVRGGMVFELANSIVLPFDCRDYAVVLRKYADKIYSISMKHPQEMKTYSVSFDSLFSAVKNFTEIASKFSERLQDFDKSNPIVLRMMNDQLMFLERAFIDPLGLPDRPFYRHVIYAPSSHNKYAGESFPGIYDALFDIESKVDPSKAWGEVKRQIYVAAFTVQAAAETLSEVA
Chain of recombinant human PSMA (prostate-specific membrane antigen), biotin-tagged (human) (Q04609 44-750 limits assumed): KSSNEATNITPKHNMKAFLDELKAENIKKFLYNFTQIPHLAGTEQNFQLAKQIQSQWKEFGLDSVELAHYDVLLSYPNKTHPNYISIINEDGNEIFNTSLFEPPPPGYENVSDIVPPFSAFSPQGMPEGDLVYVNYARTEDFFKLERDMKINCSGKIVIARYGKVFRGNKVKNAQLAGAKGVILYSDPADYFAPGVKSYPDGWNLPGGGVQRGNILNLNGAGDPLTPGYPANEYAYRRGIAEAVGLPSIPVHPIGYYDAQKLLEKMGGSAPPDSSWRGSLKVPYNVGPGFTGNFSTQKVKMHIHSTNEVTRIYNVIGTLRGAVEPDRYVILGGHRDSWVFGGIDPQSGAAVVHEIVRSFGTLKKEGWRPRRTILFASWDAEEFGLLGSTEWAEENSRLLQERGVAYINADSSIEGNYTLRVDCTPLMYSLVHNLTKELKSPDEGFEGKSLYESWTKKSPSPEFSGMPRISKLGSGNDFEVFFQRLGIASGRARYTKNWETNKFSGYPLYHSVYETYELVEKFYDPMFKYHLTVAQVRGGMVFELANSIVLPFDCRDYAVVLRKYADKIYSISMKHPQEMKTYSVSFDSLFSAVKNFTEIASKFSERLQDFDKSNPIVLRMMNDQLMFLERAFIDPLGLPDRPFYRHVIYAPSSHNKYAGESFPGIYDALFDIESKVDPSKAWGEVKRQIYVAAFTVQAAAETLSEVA

Substance | Kd [1] [nM] | Kd [2] [nM] | EC50 (read off the curve) [3] [nM] | EC50 (read off the curve) [4] [nM] | Kd [5] [nM] | EC50 (read off the curve) [6] [nM] | Kd [7] [nM]
Chimeric 5D3 IgG1 (antibody) | 0.28 | 0.35 | 0.3 | – | – | – | –
Chimeric Fab | – | – | – | 1 | 1.8 | 3 | 2.8
